Data published in patent US20200317791A1.
Positions count from the first letter of the chain named.

B1: CW6B230 (antibody, V domains shown)
VH: QVQLQESGPGLVKPSETLSLTCTVSGNSISNYYWSWIRQPAGKGLEWIGRIYITGNTNYNPSLKSRVTMSLDTSKNQFSLKLSSVTAADTAVYYCARLSGIDAFDIWGQGTMVTVSS
VL: DIQMTQSPSTLSASVGDRVTFTCQASQDITKYLNWYQQKPGKAPKLLIYDASNLETGVPSRFSGSGSGTDFTFTISSLQPEDFATYYCQQYDDLPITFGQGTRLEIK
B2: CW6B229 (antibody, V domains shown)
VH: B1 VH with S30R, N31S, T54S, L71I, Y93F
VL: B1 VL with T10S, F21I, T30S, K31N, D93N
B3: CW6B233 (antibody, V domains shown)
VH: B1 VH with S30R, N31S, T54S, L71I
VL: B1 VL with T10S, F21I, K31N, D93N
B4: CW6B238 (antibody, V domains shown)
VH: QVTLKESGPVLVKPTETLTLTCTVSGFSLNNARMGVSWIRQPPGKALEWLAHMFSSDEKFYRTSLKSRLTISKDTSKSQVVLTMTNMDPVDTATYYCARISLYSSGHDTFDLWGQGTMVTVSS
VL: AIQMTQSPSSLSASVGDRVTITCRASQDIRNTLGWYQQKPGKAPNLLIYAASSLQSGVPSRFSGSGSGTDFTLTISSLQPEDFATYYCLQDYDYPLTFGGGTKVEIK
B5: CW6B130 (antibody, V domains shown)
VH: QLQLQESGPGLVKPSETLSLTCTVSGASISSINYYWGWIRQPPGKGLEWIGSFYYSGNTYYNPSLKSRVTISVDTSKNYFSLKLNSVTAADTAVYYCAREYYDSSGYYPFEPWGQGTLVTVSS
VL: SYVLTQPPSVSVAPGQTARITCGGDNIGSESVHWYQQKPGQAPVLVVYDDTDRPSGIPERFSGSKSGTTATLTISWVEAGDEADYYCQVWDSSSDHVVFGGGTKLTVL
B6: CW6B175 (antibody, V domains shown)
VH: EVQLVESGGGLVQPGGSLRLSCAASGFTFTNYWMTWVRQAPGKGLEWVANIKQSGSEKYYVDSVKGRFTISRDNAKNSLYLQMNSLRAEDTAVYYCARTLYEWELEPFDYWGQGTLVTVSS
VL: B5 VL with D25N, N26R, E30K, Y48F, T51S, K65N, T68I, W76R, S94N
B7: CW6B228 (antibody, V domains shown)
VH: B1 VH with S30R, N31S, T54S, L71I
VL: B1 VL with T10S, F21I, T30N, K31N, N53S
B8: CW6B237 (antibody, V domains shown)
VH: B4 VH with N30S, M53I, S56H, R62S, S64F, T83M, S101I, Y103S, T109A, L112I
VL: B4 VL with N31H, T32N, T72I, Y86F, Y87F, D93I
B9: CW6B188 (antibody, V domains shown)
VH: B6 VH with S56N
VL: B5 VL with D25N, N26R, E30K, S31N, V32L, T51S, K65N, T68S, W76R, S94R

Each binder was assayed against T1, HLA-Cw6/ADAMTSL5-Abu on rhHLA-Cw6 expressing cells loaded with ADAM-Abu peptide (human), P10321 (assay: not given).
Work on B1 yielded an IC50 (read off the curve) of 0.2 µg/mL. B2 showed an IC50 (read off the curve) of 0.2 µg/mL. For B3, the IC50 (read off the curve) was 0.2 µg/mL. B4 showed an IC50 (read off the curve) of 0.2 µg/mL. With B5 the IC50 (read off the curve) was 0.03 µg/mL. Work on B6 yielded an IC50 (read off the curve) of 0.2 µg/mL.

What follows are binders tested against T1, HLA-Cw6/ADAMTSL5-Abu on rhHLA-Cw6 … (assay: cell-based or functional assay).
With B7 the IL-2 % Inhibition (8.5 nM mAb), HLA-Cw6-00290 was 100%. With B1 the IL-2 % Inhibition (8.5 nM mAb), HLA-Cw6-00290 was 93%. For B2, the IL-2 % Inhibition (8.5 nM mAb), HLA-Cw6-00290 was 86%. B3 gave an IL-2 % Inhibition (8.5 nM mAb), HLA-Cw6-00290 of 91%. For B4, the IL-2 % Inhibition (8.5 nM mAb), HLA-Cw6-00290 was 86%. B8 showed an IL-2 % Inhibition (8.5 nM mAb), HLA-Cw6-00290 of 59%. For B5, the IL-2 % Inhibition (8.5 nM mAb), HLA-Cw6-00254 was 100% and the IL-2 % Inhibition (8.5 nM mAb), HLA-Cw6-00290 was 100%. B9 gave an IL-2 % Inhibition (8.5 nM mAb), HLA-Cw6-00254 of 9%. In the case of B6, the IL-2 % Inhibition (8.5 nM mAb), HLA-Cw6-00254 is reported as 85% and the IL-2 % Inhibition (8.5 nM mAb), HLA-Cw6-00290 is reported as 96%.
